Experimental data taken from a protein production outcome set (Wang et al. 2014).

Assay: label from the status in PepcDB records
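Also: failed if final PepcDB status was selected cloned or expressed and not failed if soluble or beyond.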

| Sequence | protein production |
| --- | --- |
| MRLISKPVLCNYYVTYRCNATCGFCDIWEKPSPYVTPEAVEQNMRDLKKLGVKVIDFTGGEPLLHREMDTLLRIAKKYGMITTLTTNALLYPKWAERLKGLIDMLHFSLDSPDKAEHDTLRGVACFDFVLESIEKAKALG | failed |
| MERDTVLTATPTIDADLADATSCATPSRTAVSPLLPVLAALAAVVLWGGAFPAMKVAVQTLGTWQMMWARMVFALLLLVPLARRLAPARIERRDLPLLAGMALMQPCLYFLCESTALQLTTSSQAGVMAASMPLMMAVGGFLLGEKVSPRLWFGVGVSCIGVAWLTSSGGEGGGSAPDPFTGNLLELAAMACATGSSLCIGALISRGKGRWNALTLTGIQTLAGAVFFLPGAPGVIGGVADWSTEVLLAVVYLGGASSLGAFGLYNWALGHMPASRAGNFINLVPVAAIFFGWLLLGETLTTTQYLATGLVMGGVLMGTRAR | failed |
| MFIPQIVPIRDLKNTSAISNLCHKTNEPIFITKNGYGDMVIMSMETYEGNAFFNNLYGNLEEAEMDLQNGRVSGIDEAIEEIKSRYDL | failed |
| MSLRPQTSFIFDLDGTLTDSVYQNVAAWKEALDAENIPLAMWRIHRKIGMSGGLMLKSLSRETGMSITDEQAERLSEKHAQAYERLQHQIIALPGAVELLETLDKENLKWCIATSGGIDTATINLKALKLDINKINIVTRDDVSYGKPDPDLFLAAAKKIGAPIDECLVIGDAIWDMLAARRCKATGVGLLSGGYDIGELERAGALRVYEDPLDLLNHLDEIASREGHHHHHH | not failed |
| MITLSQRIFIILESAWRRRYLIVLPIILMPFIGLTVAKLAPKHYDSHTSMLIQETAKMNPFLEDLAVSTMLKERLSALQTLLHSRHILGSVAEERGYIHESMSPQAIDNEINKLSANLSVSMAGKDLIRIDYRANNPDGMKDTLEAVSRHFTEQLLAPERSSMKDSSKFLSDNIEFRRQELDAAEEKLAEFKSQENTVLPEMQITSLDRLTKLKQRLYERQAELAGAKKRLGSIDLQLSKTNPVIGKIEEQIIRIRGELTLLQAKYTPQHSKVQGKLRNLNRLEEERSRLLSQTQPGLSSEQLWDIASSNSVEDLAKAPPILLSQLEELQQATSKVDALTEETRVLESMIKDIELQASTFGQNEKVLYQLQRDLALKRELYNDLVERFEMAKLTRSLGVFEQEKRVKIIDRPYTPSGPSNLPTILYAIAGVIGGIGFGIGMAIIAELCDTSIRRKDEIATLSTSPVLSRIPPQPVKCFNLSEDTHSTTNNLLSSMSKAN | failed |
| MLRLARKGLQTAVVRSYAKDVKFGAEGRQAMLVGVNLLADAVSVTMGPKGRNVIIEQSWGSPKITKDGVTVAKSIDLKDKYQNLGAKLIQDVANKANEEAGDGTTCATVLARAIAKEGFESIRQGGNAVEIRRGVMNAVEVVVAELKKISKKVTTPEEIAQVATISANGDTVVGNLISDAMKKVGTTGVITVKDGKTLNDELELIEGMKFDRGYISPYFITSAKGAKVEYEKALVLLSEKKISQVQDIVPALELANKLRRPLVIIAEDVDGEALTTLVLNRLKVGLQVVAIKAPGFGDNRKNTLKDMGIATGATIFGDDSNLIKIEDITANDLGEVDEVTITKDDTLLLRGRGDQTEIEKRIEHITDEIEQSTSDYEKEKLNERLAKLSKGVAVLKIGGGSEVEVGEKKDRVTDALCATRAAVEEGIVPGGGVALLRSLTALKNYKAANEDQQIGVNIVKKALTQPIATIVKNAGLEPSSIIDEVTGNSNTSYGYDALNGKFVDMFEAGIIDPTKVVRTALQDASGVASLLATTECVVTEIPKEEAVGGPAGGMGGMGGMGGMGGMGF | not failed |
